Reference: patent US20180134769A1 (NATIONAL RESEARCH COUNCIL OF CANADA, published 2018)
Where two headings read alike, the source gives them in different places.

Legend:
[1] = biological target: T1, Clostridium difficile toxin B (TcdB) (Clostridium difficile strain 10463, UniProt P18177 1-2366); assay: ELISA, antigen coated
T1 construct: range 1-2366

TcdB-RBD-f1 [2] = biological target: T2, TcdB-RBD-f1 (Clostridium difficile, UniProt P18177 2286-2366); assay: ELISA, antigen coated
T2 construct: range 2286-2366

[3] = biological target: T3, Clostridium difficile toxin A (TcdA) (Clostridium difficile strain 10463, UniProt P16154 1-2710); assay: SPR, TcdA immobilized; same value as in Table 1
T3 construct: range 1-2710

[4] = biological target: T3, Clostridium difficile toxin A (TcdA); assay: SPR (BIACORE 3000); TcdA immobilized on CM5 chip, monomeric VHH injected
[5] = biological target: T3, Clostridium difficile toxin A (TcdA); assay: ELISA, TcdA coated at 5 ug/ml, rabbit anti-His6 IgG-HRP
[6] = biological target: T3, Clostridium difficile toxin A (TcdA)
[7] = biological target: T3, Clostridium difficile toxin A (TcdA); remark: listed apart in the source
[8] = biological target: T3, Clostridium difficile toxin A (TcdA); assay: SPR (BIACORE 3000); 10,287 RUs of TcdA immobilized, VHH injected
[9] = biological target: T3, Clostridium difficile toxin A (TcdA); assay: ELISA, immobilized TcdA, serial dilution of VHH, rabbit anti-His6 IgG-HRP
TcdA-RBD-f1 = biological target: T4, TcdA-RBD-f1 (Clostridium difficile, UniProt P16154 2304-2710); assay: ELISA, antigen coated
T4 construct: range 2304-2710

TcdB-RBD-f1 [10] = biological target: T2, TcdB-RBD-f1; assay: SPR (BIACORE 3000); VHH immobilized on CM5 chip, TcdB-RBD-f1 injected
[11] = biological target: T3, Clostridium difficile toxin A (TcdA); assay: ELISA, antigen coated

Row | Binder | binding result [1] | binding result (TcdB-RBD-f1 [2]) | Kd [3] [nM] | koff [3] [s⁻¹] | kon [3] [M⁻¹ s⁻¹] | Kd [4] [nM] | koff [4] [s⁻¹] | also measured
1 | A24.1 (VHH, also called anti-TcdA VHH A24.1) VHH: QVQLVESGGGLVQAGGSLRLSCAASIRSFSNRNMGWFRQPPGKEREFVAGISWGGGSTRYADSVKGRFTISRDNAKKTVYLQMNSLKPEDTAVYYCAAEFGHNIATSSDEYDYWGQGTQVTVSS | no binding | no binding | 260 | 0.016 | 60000 | 260 | 0.016 | kon [4]: 60000 M⁻¹ s⁻¹
2 | A20.1 (VHH, also called anti-TcdA VHH A20.1) VHH: QVQLVESGGGLAQAGGSLRLSCAASGRTFSMDPMAWFRQPPGKEREFVAAGSSTGRTTYYADSVKGRFTISRDNAKNTVYLQMNSLKPEDTAVYYCAAAPYGANWYRDEYAYWGQGTQVTVSS | no binding | no binding | 2 | 0.0016 | 820000 | 2 | 0.0016 | EC50 (read off the curve) [5]: ~1 nM; kon [4]: 820000 M⁻¹ s⁻¹
3 | A20.1p (other) VHH: QVQLVESGGGLAQAGGSLRLSCAASGRTFSMDPMAWFRQPPGKEREFVAAGSSTGRTTYYADSVKGRFTISRDNAKNTVYLQMNSLKPEDTAVYYCAAAPYGANWYRDEYAYWGQGTQVTVSS |  |  |  |  |  |  |  | EC50 (read off the curve) [6]: ~1 nM
4 | A20.1m (VHH, also called mutant A20.1; disulfide mutant of A20.1) VHH: QVQLVESGGGLAQAGGSLRLSCAASGRTFSMDPMAWFRQPPGKEREFVCAGSSTGRTTYYADSVKGRFTCSRDNAKNTVYLQMNSLKPEDTAVYYCAAAPYGANWYRDEYAYWGQGTQVTVSS |  |  |  |  |  |  |  | koff [7]: 0.0059 s⁻¹; Kd [8]: 9.2 nM; koff [8]: 0.0059 s⁻¹; kon [8]: 640000 M⁻¹ s⁻¹
5 | A19.2 (VHH, also called anti-TcdA VHH A19.2) VHH: QVKLEESGGGLVQPGGSLRLSCAASGRTLSSYIVAWFRQAPGKEREFVAGISRRGGNSAYVESVKGRFTISRDNAKNTVYLQMNSLKPEDTAVYYCAADGSVAGWGRRSVSVSSYDYWGQGTQVTVSS | no binding | no binding | 290 | 0.0039 | 14000 | 290 | 0.0039 | kon [4]: 14000 M⁻¹ s⁻¹; EC50 (read off the curve) [9]: ~0.04 µg/mL
6 | A5.1 (VHH, also called anti-TcdA VHH A5.1) VHH: QVKLEESGGGLVQAGGSLRLSCAASGRTFSMYRMGWFRQAPGKEREFVGVITRNGSSTYYADSVKGRFTISRDNAKNTVYLQMNSLKPEDTALYYCAATSGSSYLDAAHVYDYWGQGTQVTVSS | no binding | no binding | 3 | 0.005 | 1.6e+06 | 3 | 0.005 | EC50 (read off the curve) [5]: ~7 nM; kon [4]: 1.6e+06 M⁻¹ s⁻¹
7 | A5.1p (other) VHH: QVKLEESGGGLVQAGGSLRLSCAASGRTFSMYRMGWFRQAPGKEREFVGVITRNGSSTYYADSVKGRFTISRDNAKNTVYLQMNSLKPEDTALYYCAATSGSSYLDAAHVYDYWGQGTQVTVSS |  |  |  |  |  |  |  | EC50 (read off the curve) [6]: ~4 nM
8 | A5.1m (VHH, also called mutant A5.1; disulfide mutant of A5.1) VHH: QVKLEESGGGLVQAGGSLRLSCAASGRTFSMYRMGWFRQAPGKEREFVCVITRNGSSTYYADSVKGRFTCSRDNAKNTVYLQMNSLKPEDTALYYCAATSGSSYLDAAHVYDYWGQGTQVTVSS |  |  |  |  |  |  |  | koff [7]: 0.013 s⁻¹; Kd [8]: 17 nM; koff [8]: 0.016 s⁻¹; kon [8]: 950000 M⁻¹ s⁻¹
9 | A26.8m (VHH, also called mutant A26.8; disulfide mutant of A26.8) VHH: QVKLEESGGGLVQAGGSLRLSCAASERTFSRYPVAWFRQAPGAEREFVCVISSTGTSTYYADSVKGRFTCSRDNAKVTVYLQMNNLKREDTAVYFCAVNSQRTRLQDPNEYDYWGQGTQVTVSS |  |  |  |  |  |  |  | koff [7]: 0.019 s⁻¹; Kd [8]: 28 nM; koff [8]: 0.028 s⁻¹; kon [8]: 1e+06 M⁻¹ s⁻¹
10 | A26.8 (VHH, also called anti-TcdA VHH A26.8) VHH: QVKLEESGGGLVQAGGSLRLSCAASERTFSRYPVAWFRQAPGAEREFVAVISSTGTSTYYADSVKGRFTISRDNAKVTVYLQMNNLKREDTAVYFCAVNSQRTRLQDPNEYDYWGQGTQVTVSS |  | no binding |  |  |  |  |  | binding result (TcdA-RBD-f1): binds
11 | B13.6 (VHH, llama VHH monomer; also called anti-TcdB VHH B13.6) VHH: QVKLEESGGGLVQAGGSLRLSCSASGRTFSSGVMGWFRQAPGKQRELVAAITTGGSTSYTDSVKGRFTISRDNAKNTVYLQMNSLKPEDTAVYYCNSVAVVGGVIKSPDYWGQGTQVTVSS |  |  |  |  |  |  |  | Kd (TcdB-RBD-f1 [10]): 400 nM; koff (TcdB-RBD-f1 [10]): 0.001 s⁻¹; kon (TcdB-RBD-f1 [10]): 2500 M⁻¹ s⁻¹
12 | B15.5 (VHH, llama VHH monomer; also called anti-TcdB VHH B15.5) VHH: QVQLVESGGDLVQAGGSLRLSCAASGSISRISTMGWYRQAPGKQRELVATISTGGTTNYAESVKGRFTVSRDNAKNTMYLQMNSLKPEDTAVYYCAAGWKVVRGSLEYEYSGQGTQVTVSS |  |  |  |  |  |  |  | Kd (TcdB-RBD-f1 [10]): 357 nM; koff (TcdB-RBD-f1 [10]): 0.001 s⁻¹; kon (TcdB-RBD-f1 [10]): 2800 M⁻¹ s⁻¹
13 | A4.2m (VHH, also called mutant A4.2; disulfide mutant of A4.2) VHH: QVKLEESGGGLVQAGGSLRLSCAASGRTFNTLSMGWFRQAPGKEREFVCAVSRSGGSTYYADSVKGRFTCSRDNAKNTVYLQMNSLKPEDTAVYYCAAAATKSNTTAYRLSFDYWGQGTQVTVSS |  |  |  |  |  |  |  | koff [7]: 0.016 s⁻¹; Kd [8]: 20 nM; koff [8]: 0.019 s⁻¹; kon [8]: 930000 M⁻¹ s⁻¹
14 | A4.2 (VHH, also called anti-TcdA VHH A4.2) VHH: QVKLEESGGGLVQAGGSLRLSCAASGRTFNTLSMGWFRQAPGKEREFVAAVSRSGGSTYYADSVKGRFTISRDNAKNTVYLQMNSLKPEDTAVYYCAAAATKSNTTAYRLSFDYWGQGTQVTVSS | no binding | no binding | 24 | 0.016 | 670000 | 24 | 0.016 | 
15 | B5.2 (VHH, llama VHH monomer; also called anti-TcdB VHH B5.2) VHH: QVQLVESGGGLVQPGGSLRLSCAASGNIFSINTMGWYRQAPGKQLELVAAITSGGTTSYTDSVEGRFTISRDNAKNAVYLQMNSLKAEDTAVYYCNTVKVVGGRLDNPDYWGQGTQVTVSS |  |  |  |  |  |  |  | binding result [11]: binds; Kd (TcdB-RBD-f1 [10]): 100 nM; koff (TcdB-RBD-f1 [10]): 0.0002 s⁻¹; kon (TcdB-RBD-f1 [10]): 2000 M⁻¹ s⁻¹
